Measured values from PMC5175346.

What was measured:
Test in all cases: fluorescence anisotropy
PriA wt = PriA wt (Escherichia coli, UniProt P17888 1-732)
PriA R334A = PriA R334A (Escherichia coli, UniProt P17888 1-732, R334A)
PriA K328A = PriA K328A (Escherichia coli, UniProt P17888 1-732, K328A)
PriA Y335A = PriA Y335A (Escherichia coli, UniProt P17888 1-732, Y335A)
PriA Q330A = PriA Q330A (Escherichia coli, UniProt P17888 1-732, Q330A)
PriA W333A = PriA W333A (Escherichia coli, UniProt P17888 1-732, W333A)
PriA Q329A = PriA Q329A (Escherichia coli, UniProt P17888 1-732, Q329A)

Measured: binding result

B1: two-stranded fork, structure #1 (1b-98/3L-98) (structured_DNA)
DNA 1: GCAAGCCTTCTACAGGTCGACCGTCCATGGCGACTCGAGACCGCAATACGGATAAGGGCTGAGCACGCCGACGAACATTCACCACGCCAGACCACGTA
DNA 2: GACTATCTACGTCCGAGGCTCGCGCCGCAGACTCATTTAGCCCTTATCCGTATTGCGGTCTCGAGTCGCCATGGACGGTCGACCTGTAGAAGGCTTGC
binds: all assays above
